# According to IntAct's records for PubMed 17595167:
# B1: PAN2-PAN3 deadenylation complex subunit PAN3 (Homo sapiens), Q58A45 (parent)
# chain: MNSGGGLPPPSAAASPSSSSLAAAVAVVAPPGVGGVPGGAAVGVKLKYCRYYAKDKTCFYGEECQFLHEDPAAGAAPGLGLHSNSVPLALAGAPVAGFPPGAVAGGGAGPPPGPKKPDLGDPGTGAAAGGGGSSGGLDGPRLAIPGMDGGALTDTSLTDSYFSTSFIGVNGFGSPVETKYPLMQRMTNSSSSPSLLNDSAKPYSAHDPLTSPASSLFNDFGALNISQRRKPRKYRLGMLEERLVPMGSKARKAKNPIGCLADRCKSGVPINMVWWNRVTENNLQTPNPTASEFIPKGGSTSRLSNVSQSNMSAFSQVFSHPSMGSPATAGLAPGMSLSAGSSPLHSPKITPHTSPAPRRRSHTPNPASYMVPSSASTSVNNPVSQTPSSGQVIQKETVGGTTYFYTDTTPAPLTGMVFPNYHIYPPTAPHVAYMQPKANAPSFFMADELRQELINRHLITMAQIDQADMPAVPTEVDSYHSLFPLEPLPPPNRIQKSSNFGYITSCYKAVNSKDDLPYCLRRIHGFRLVNTKCMVLVDMWKKIQHSNIVTLREVFTTKAFAEPSLVFAYDFHAGGETMMSRHFNDPNADAYFTKRKWGQHEGPLPRQHAGLLPESLIWAYIVQLSSALRTIHTAGLACRVMDPTKILITGKTRLRVNCVGVFDVLTFDNSQNNNPLALMAQYQQADLISLGKVVLALACNSLAGIQRENLQKAMELVTINYSSDLKNLILYLLTDQNRMRSVNDIMPMIGARFYTQLDAAQMRNDVIEEDLAKEVQNGRLFRLLAKLGTINERPEFQKDPTWSETGDRYLLKLFRDHLFHQVTEAGAPWIDLSHIISCLNKLDAGVPEKISLISRDEKSVLVVTYSDLKRCFENTFQELIAAANGQL
# Variants of: B1
# Conditions: with pabp1_human PABPC1, P11940
# Chain of pabp1_human PABPC1, P11940 (P11940 whole entry): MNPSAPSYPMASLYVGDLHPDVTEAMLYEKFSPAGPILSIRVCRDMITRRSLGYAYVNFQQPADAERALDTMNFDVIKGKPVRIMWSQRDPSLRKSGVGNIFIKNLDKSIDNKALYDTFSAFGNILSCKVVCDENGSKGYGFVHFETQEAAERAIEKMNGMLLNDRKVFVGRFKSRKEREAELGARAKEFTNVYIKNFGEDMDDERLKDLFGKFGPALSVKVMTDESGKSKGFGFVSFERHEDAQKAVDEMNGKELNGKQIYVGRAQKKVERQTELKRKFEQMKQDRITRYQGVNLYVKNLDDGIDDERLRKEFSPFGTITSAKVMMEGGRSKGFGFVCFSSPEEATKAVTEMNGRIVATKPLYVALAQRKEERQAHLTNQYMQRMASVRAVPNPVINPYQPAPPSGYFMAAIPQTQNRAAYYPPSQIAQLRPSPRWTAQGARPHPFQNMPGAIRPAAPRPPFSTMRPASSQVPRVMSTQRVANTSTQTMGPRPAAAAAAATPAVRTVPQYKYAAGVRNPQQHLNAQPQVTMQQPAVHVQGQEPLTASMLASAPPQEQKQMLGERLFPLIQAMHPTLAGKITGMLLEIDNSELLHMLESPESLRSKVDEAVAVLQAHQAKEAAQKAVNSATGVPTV
row,Variant,effect of a mutation on the interaction
1,F293A,decreasing interaction
